The record followed here is publication PMC10720262 (2023).

The target in the experiment is PfCSP full length (Plasmodium falciparum (isolate NF54), UniProt P19597). Briefly: ELISA AUC. (In an ELISA, binding on a coated surface is turned into a signal by an enzyme label.)

Residue numbers refer to the chain shown, from its start.

PfCSP full length, sequence (P19597 20-375): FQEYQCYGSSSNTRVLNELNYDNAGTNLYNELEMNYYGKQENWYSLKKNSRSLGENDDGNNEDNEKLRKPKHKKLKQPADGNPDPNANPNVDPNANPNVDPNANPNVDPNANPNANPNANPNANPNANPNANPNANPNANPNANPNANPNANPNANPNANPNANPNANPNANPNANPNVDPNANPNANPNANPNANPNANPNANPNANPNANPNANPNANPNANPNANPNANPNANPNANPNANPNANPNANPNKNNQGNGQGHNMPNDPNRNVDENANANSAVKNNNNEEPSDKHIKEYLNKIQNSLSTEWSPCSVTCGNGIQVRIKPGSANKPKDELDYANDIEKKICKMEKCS

B1: CL-447376 (antibody, V domains shown)
VH: QVQLVESGGGVVQPGRSLRLSCAASGFNFNNYGMHWVRQAPVMGLEWVAIIWYDGSNKFYADSVKGRFTISRDNSQNTLFLQMNSLRAEDTGIYYCARSGGEMGNFDYWGQGTLVTVSS
VL: DIVMTQSPLSLPVTLGQPASISCRSSQSLVYSNGDTYLDWFQLRPGQSPRRLIYKVSHRDSGVPDRFSGSGSGTEFTLRISRVEAEDVGIYYCMQGTHYWTFGQGTEVEIK
modifications: peptides N-terminally acetylated and C-terminally amidated
For B1, the binding score was 2.5.

B2: CL-509025 (antibody, V domains shown)
VH: QVQLVESGGGVVQPGRSLRLSCVASGFTFSDYGMHWVRQAPGKGLEWVAVIWYDGTKEFFADSVKGRFTISRDNSKDTLYLQMNSLRAEDTGIYYCATYKWNSHLDYWGQGTLVTVSS
VL: EIVLTQSPATLSLSPGERATLSCRASQTISSYLAWYQQKPGQAPRLLIYDASNRATGIPARFSGSGSGTDFTLTISSLEPEDFTVYYCQQRSNWPLTFGGGTKVGIK
modifications: peptides N-terminally acetylated and C-terminally amidated
In the case of B2, the binding score is 1.64.

B3: CL-441734 (antibody, V domains shown)
VH: QVQLVESGGGVVQPGRSLRLSCAASGFTFSSHGMHWVRQAPVKGLEWVAVIWYDGSNKYYADSVKGRFTISRDNSKNTLYLQMNSLRAEDTAVYYCARVEYSRSSGDYYYYGLDVWGQGTTVTVSS
VL: EIVMTQSPATLSVSPGERATLSCRASQSVSSNLAWYQQKPGQAPRLLIYGASTRATGIPARFSGSGSGTEFTLTISSLQSEDFAVYYCQQYDNWWTFGQGTKVEIK
modifications: peptides N-terminally acetylated and C-terminally amidated
As to B3, the binding score came out at 2.3.

B4: CL-511073 (antibody, V domains shown)
VH: QVQLVESGGGVVQPGRSLRLSCAASGFSFSSHGMHWVRQAPGKGLEWVSIIWYDGSNKFYADSVKGRFTISRDNSKNTLYLQMNSLRAEDTAVYYCARDGYDVLTGHYNWFDPWGQGTLVTVSS
VL: B3 VL with N32K, E70D, D92N, Q99H
modifications: peptides N-terminally acetylated and C-terminally amidated
B4 returned a binding score of 2.15.

B5: CL-449724 (antibody, V domains shown)
VH: QVHLVASGGGVVQPGRSLRLSCEVTGFTFSSYGMHWVRQDPGRGLEWVAIIWYDGSNKFYADSVKGRFTISRDNSKNTLYLQMNSLRAEDTAVYYCARSYGILTGYQTKYGMDVWGQGTTVTVSS
VL: not shown
modifications: peptides N-terminally acetylated and C-terminally amidated
The molecule B5 yielded a binding score of 2.5.

B6: CL-464277 (antibody, V domains shown)
VH: B5 VH with H3Q, E23A, T25S, S30R, S31N, N57Y, I102S, Y106D, T122S
VL: not shown
modifications: peptides N-terminally acetylated and C-terminally amidated
For the molecule B6, the binding score came out at 2.5.

B7: CL-440422 (antibody, V domains shown)
VH: QVQLVESGGGVVQPGRSLRLSCAASGFTFSNFGMHWVRQTPDRGLEWVAIIWFDGSNTFYTDSVKGRFTISRDNYMNTLYLQMNSLRAEDTAVYYCARSFYSDSAGSLFDYWGQGTLVTVSS
VL: DIQMTQSPSTLSASVGDRVTITCRASQNINNWVAWYQQKPGKAPKLLIYKASDLETGVPSRFSGSGSGTEFTLTISGLQPDDFATFYCLQNNHYWTFGQGTKVEIK
modifications: peptides N-terminally acetylated and C-terminally amidated
Consider B7, for which the binding score came out at 2.5.

B8: CL-510484 (antibody, V domains shown)
VH: QVQLVESGGGVVQPGRSLRLSCAASGFTFSNYGMNWVRQAPGKGLEWMAVIWYDGSNKYYGDSVKGRFTISRDNSKNTLYLQMISLRAEDTAVYFCAKSGEFYGSGSHFDYWGQGTLVTVSS
VL: not shown
modifications: peptides N-terminally acetylated and C-terminally amidated
On to B8, for which the binding score is 2.03.

B9: CL-447737 (antibody, V domains shown)
VH: QVQLVESGGGVVQPGRSLRLSCAASGFTFSSYGMHWVRQAPGKGLEWVAIIWFDGSNIFYEDSVKGRFTISRDNSKNTLYLQMNSLRAEDTAVYYCAKVWNYDSDYYSMDVWGQGTTVTVSS
VL: not shown
modifications: peptides N-terminally acetylated and C-terminally amidated
Regarding B9, the binding score came out at 2.4.

B10: CL-437934 (antibody, V domains shown)
VH: QVQLVASGGAVVQPGRSLRLSCAASGFTFSNSGMHWVRQAPGQGLEWVAIIWYDGGNKYYADSVKGRFTISRDNSKNTLYLQMNSLRAEDTAVYYCVRAYYEILTTYNKDCCYGMDVWGQGTTVTVSS
VL: not shown
modifications: peptides N-terminally acetylated and C-terminally amidated
As to B10, the binding score is 2.4.

B11: CL-509177 (antibody, V domains shown)
VH: QVQLVESGGGVVQPGRSLRLSCAASGFSFSSYGMHWVRQTPGKGLEWVAIIWYDGSNKFYADSVKGRFIISRDNSKNTLYLQMNSLRAEDTAVYYCARDGGYSTSAGDFDYWGQGTLVTVSS
VL: EIVLTQSPGTLSLSPGERATLSCRASQSVSSSYLAWYQQKPGQAPRLLIYGASSRATGIPDRFSGRGSGTDFTLTISRLEPEDFAVYYCQQYVSSFTFGPGTKVDIN
modifications: peptides N-terminally acetylated and C-terminally amidated
As for B11, the binding score is 1.17.

B12: CL-510632 (antibody, V domains shown)
VH: QVQLVESGGGVVQPGRSLRLSCAASGFTFSNYGMHWVRQAPGKGLEWVAVIWYDGSNKFYADSVKGRFTISRDNSKNTLYLQTNSLRAEDTAVYYCARVYYYDSGNYLDYWGQGTLVAVSS
VL: DIQMTQSPSSVSASVGDRVTITCRASQGINNCLAWYQQKPGKAPKLLIYAASSLQSGVPSRFSGSGSGTDFTLTISNLQPEDFATYCCQQANSFPWTFGQGTKVEIK
modifications: peptides N-terminally acetylated and C-terminally amidated
B12 gave a binding score of 1.9.

B13: CL-513279 (antibody, V domains shown)
VH: QVQLVESGGGVVQPGRSLRLSCAASGFTFSNFGMHWVRQAPVKGLEWVALIWYDGSNKFYADSVQGRFTISRDNSKNILYLQMNSLRAEDTAVYYCAKVEARGVDYHSYGMDVWGQGTTVTVSS
VL: DIQMTQSPSTLSASVGDRVTITCRASQSISSWLAWYQQKPGKAPQLLIYKASSLESGVPSRFSGSGSGTEFTLTISSLQPDDFATYYCQQYKYYWTFGQGTKVEIK
modifications: peptides N-terminally acetylated and C-terminally amidated
On to B13, for which the binding score was determined as 2.06.

B14: CL-510092 (antibody, V domains shown)
VH: QVQLVESGGGVVQPGTSLRLSCAASGFTFSNFGMYWVRQAPGKGLEWVALIWYDGSNKFYEDSVKGRFTISRDNSKNTLYLQMNSLRAEDTAVYYCAKDGGYSGPGKYGFFRHWGQGSLVTVSS
VL: B13 VL with M4L, S31N, Q45K, S65N, Q89H, K92N, Y93F
modifications: peptides N-terminally acetylated and C-terminally amidated
With B14, the binding score stood at 2.38.

B15: CL-510700 (antibody, V domains shown)
VH: QVQLVESGGGVVQPGRSLRLSCAASGFTFSDFGMHWVRQTPGKGLEWVAIIWYDGSNKFYADSVKGRFTISRDNSKNTLFLQMNSLRAEDTAVYYCARSGVYYGSGSHFDYWGQGTLVTVSS
VL: B13 VL with Q38L, Q45K, S53N, S56T, S60L, K92N, Y93S, W95L
modifications: peptides N-terminally acetylated and C-terminally amidated
Take B15: the binding score is 1.9.

B16: CL-509494 (antibody, V domains shown)
VH: QVQLVESGGGVVQPGRSLRLSCAASGFTFSNFGMHWVRQSPGRGLEWVAIIWYDGSHKFYADSVKGRFTISRDNSKNTLYLQMNSLRAEDTAVYYCAKSEQRTNDHYYKYGMDVWGQGTTVTVST
VL: B13 VL with Q45T, K92T, Y93N
modifications: peptides N-terminally acetylated and C-terminally amidated
In turn, B16 returned a binding score of 1.93.

B17: CL-445827 (antibody, V domains shown)
VH: QVQLVASGGGVVQPGRSLRLSCVASGFTFSFFGMHWVRQTPGRGLEWVAIIWYDGGHKFYADSVKGRFTISRDNSKDTLYLQMNSLRAEDTAVYYCARAEDNMARGNIDYSKYGMDVWGQGTTVTVSS
VL: B13 VL with A13V, V15I, S31T, Q45K, S53N, E70D, S77G, K92F, Y93S
modifications: peptides N-terminally acetylated and C-terminally amidated
The molecule B17 had a binding score of 2.5.

B18: CL-512264 (antibody, V domains shown)
VH: QVQLVESGGGVVQPGRSLRLSCVTSGFTFSNFGMHWVRQAPGKGLEWVAIIWYDGSNKFYADSLKGRFTISRDNSKNTLFLQMNSLRAEDTAVYYCARAHTVTTANDKYGTDVWGQGTTVTVSS
VL: B13 VL with Q38H, Q45K, Y87F, K92N, Y93S
modifications: peptides N-terminally acetylated and C-terminally amidated
In the case of B18, the binding score came to 2.54.

B19: CL-531383 (antibody, V domains shown)
VH: QVQLVESGGGVVQPGRSLRLSCAASGFTFSSFGMHWVRQTPVKGLEWVALIWYDGSHKFYADSVRGRFIISRDNSKNTLFLQMNSLRAEDTAIYYCAKVINYGSGNYYNNYKYTMDVWGQGTTVTVSS
VL: B13 VL with Q45K, L46V, K92N, Y93T
modifications: peptides N-terminally acetylated and C-terminally amidated
Molecule B19 returned a binding score of 2.64.

B20: CL-514146 (antibody, V domains shown)
VH: QVQLVESGGGVVQPGRSLRLSCAVSGFTFSNSGMHWVRQAPGKGLEWVAIIWYDGNNKFYADSVKGRFTISRDNSKNTLYLQMNSLRAEDTSIYYCARAYPSGNYGDKYGMDVWGQGTTVTVSS
VL: B13 VL with Y36F, K42N, Q45K, S76N, K92N, Y93S, Y94F
modifications: peptides N-terminally acetylated and C-terminally amidated
In turn, B20 registered a binding score of 2.39.

B21: CL-444424 (antibody, V domains shown)
VH: QVQLVESGGGVVQPGRSLRLSCTASGFTFSNYGMHWIRQAPGKGLEWVAIIWFDGSSQYYADSVKGRFTISRDNSKNTLYLQMNSLRAEDTAVYYCVRALYDSGSLFDFWGLGTLVTVSS
VL: B13 VL with S28N, W32L, Q45K, S65N, I75V, Y87S, Q89L, K92N, Y93N
modifications: peptides N-terminally acetylated and C-terminally amidated
For B21, the binding score amounted to 2.3.

B22: CL-513780 (antibody, V domains shown)
VH: QVQLVESGGGVVQPGRSLRLSCTASGFIFSNYGMYWVRQAPGKGLDWVALIWYDGSNKYYVGSVKGRFTISRDNSKNTLYLQMNSLRAEDTAVYYCARAGKYSGSGSYLDSWGQGTLVTVSS
VL: B13 VL with Q6P, T10I, S28N, Q45K, Y87F, K92Y, Y93S
modifications: peptides N-terminally acetylated and C-terminally amidated
Molecule B22 gave a binding score of 2.48.

B23: CL-440324 (antibody, V domains shown)
VH: QVQLVESGGGVVQPGRSLRLSCAASGFTFRNHGLHWVRQAPGKGLEWVAIIWFDGSNKFYADSVKGRFTISRDNSKNTLYLQMNSLRAEDTAIYYCARVSSHDNGDYGDFDYWGQGTLVTVSS
VL: B13 VL with S28N, S31N, Q45K, S77G, Y93T, K102Q
modifications: peptides N-terminally acetylated and C-terminally amidated
For B23, the binding score stood at 2.6.

B24: CL-515284 (antibody, V domains shown)
VH: QVQLVGSGGGVVQSGRSLRLSCAASGFTFSNFGMHWVRQTPDKGLEWLAIIWYDGSHKFYVDSVKGRFTISRDNSMNTLFLQMNSLRAEDTGVYYCVRSWNYADSKYGMDVWGQGTTVTVSS
VL: B13 VL with Q45N, K92Y, Y93N
modifications: peptides N-terminally acetylated and C-terminally amidated
As for B24, the binding score is 2.19.

B25: CL-437762 (antibody, V domains shown)
VH: QVQLVESGGGVVQPGRSLRLSCAASGFTFSNYGMYWVRQAPGKGLEWVAVIWYDGSNKYYADSVKGRFTISRDNSKNTLYLQMNSLRAEDTAFYYCARPQYSGSGSYFDYWGQGTLVTVSS
VL: not shown
modifications: peptides N-terminally acetylated and C-terminally amidated
Molecule B25 showed a binding score of 2.5.
